Patent publication US20080213817A1 (published 2008)

Target: T1, mitogen-activated protein kinase/ERK kinase kinase 1 (MEKK1) (mouse, UniProt P53349 2-1493)
T1 construct: Endogenous protein co-immunoprecipitated from mouse thymocyte / T cell lysates, not a recombinant construct; also called MEK kinase 1; MAPK/ERK kinase kinase 1
T1 sequence (looked up): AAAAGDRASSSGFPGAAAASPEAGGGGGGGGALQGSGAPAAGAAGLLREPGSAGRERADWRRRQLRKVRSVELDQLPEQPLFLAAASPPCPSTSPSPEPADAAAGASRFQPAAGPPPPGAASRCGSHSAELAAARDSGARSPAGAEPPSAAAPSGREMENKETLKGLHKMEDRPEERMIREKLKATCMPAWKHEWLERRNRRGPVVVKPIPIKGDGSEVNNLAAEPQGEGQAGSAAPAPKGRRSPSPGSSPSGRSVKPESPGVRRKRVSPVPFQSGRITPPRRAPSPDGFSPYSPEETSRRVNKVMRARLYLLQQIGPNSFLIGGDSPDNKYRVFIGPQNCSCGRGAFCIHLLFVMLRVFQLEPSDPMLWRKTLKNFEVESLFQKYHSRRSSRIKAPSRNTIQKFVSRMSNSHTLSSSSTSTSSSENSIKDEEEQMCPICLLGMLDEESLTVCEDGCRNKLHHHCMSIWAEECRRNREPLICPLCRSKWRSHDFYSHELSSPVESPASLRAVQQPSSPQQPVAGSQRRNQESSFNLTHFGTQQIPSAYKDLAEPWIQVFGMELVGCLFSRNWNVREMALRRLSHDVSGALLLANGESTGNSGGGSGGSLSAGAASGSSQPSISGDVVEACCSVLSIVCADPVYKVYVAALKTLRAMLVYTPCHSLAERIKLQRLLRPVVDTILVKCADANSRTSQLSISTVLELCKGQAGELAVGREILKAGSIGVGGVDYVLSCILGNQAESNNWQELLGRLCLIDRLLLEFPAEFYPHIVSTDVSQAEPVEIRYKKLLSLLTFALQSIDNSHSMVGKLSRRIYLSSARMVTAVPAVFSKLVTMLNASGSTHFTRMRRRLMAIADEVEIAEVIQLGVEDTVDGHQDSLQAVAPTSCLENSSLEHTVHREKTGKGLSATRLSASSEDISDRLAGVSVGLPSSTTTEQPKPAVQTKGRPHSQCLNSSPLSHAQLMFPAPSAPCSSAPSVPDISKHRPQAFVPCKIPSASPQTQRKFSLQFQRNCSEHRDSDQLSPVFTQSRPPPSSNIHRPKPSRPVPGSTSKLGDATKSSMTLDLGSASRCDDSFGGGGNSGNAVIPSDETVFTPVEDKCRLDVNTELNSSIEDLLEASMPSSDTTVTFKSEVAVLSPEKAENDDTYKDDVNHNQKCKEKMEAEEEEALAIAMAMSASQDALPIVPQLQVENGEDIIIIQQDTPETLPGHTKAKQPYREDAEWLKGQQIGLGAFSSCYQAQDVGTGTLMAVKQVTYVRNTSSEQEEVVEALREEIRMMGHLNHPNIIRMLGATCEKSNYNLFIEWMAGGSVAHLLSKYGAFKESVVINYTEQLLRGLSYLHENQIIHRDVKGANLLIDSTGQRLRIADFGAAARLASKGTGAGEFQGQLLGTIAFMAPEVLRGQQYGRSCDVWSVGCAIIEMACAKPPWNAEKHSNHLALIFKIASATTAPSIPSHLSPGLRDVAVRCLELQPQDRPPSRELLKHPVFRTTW
Assay: co-immunoprecipitation (summary of the results)

B1: E3 ubiquitin ligase Itch (enzyme)
chain: not shown
notes: Endogenous protein from mouse thymocytes / T cells; also called Itchy E3 ubiquitin protein ligase; AIP4
binding result: binds
